This data set deals with the molecule itself. Put plainly: dynamic light scattering of liposomes carrying Nhead-SNAP on the surface layer.

B1: Nhead-SNAP fusion peptide (AtaA59-325-GCN4pII-SNAP-His) (other)
chain: not shown
notes: also called E. coli recombinant Nhead-SNAP
As for B1, the binding result was “no binding”.

Values taken from patent US20220259268A1 (NATIONAL UNIVERSITY CORPORATION TOKAI NATIONAL HIGHER …, published 2022).
